Experimental data from patent publication US20210253725A1 (BIONTECH, published 2021).

T1: CD134 expressed on the cell surface of HT1080_OX40 cells (human, UniProt P43489 29-277)
T1 sequence (looked up): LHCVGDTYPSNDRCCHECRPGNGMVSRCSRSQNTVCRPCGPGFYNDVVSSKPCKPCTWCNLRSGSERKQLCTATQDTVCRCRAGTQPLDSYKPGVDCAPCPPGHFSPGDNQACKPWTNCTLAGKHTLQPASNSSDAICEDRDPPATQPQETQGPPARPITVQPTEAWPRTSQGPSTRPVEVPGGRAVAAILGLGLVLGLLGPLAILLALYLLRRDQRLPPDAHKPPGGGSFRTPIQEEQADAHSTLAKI

T2: CD134 protein (His-tagged, Sino Biological Inc. 10481-H08H) (human, UniProt P43489 29-216)
T2 construct: bought protein coated on ELISA plates; also called OX40; TNFRSF4; not shown: His tag
T2 sequence (looked up): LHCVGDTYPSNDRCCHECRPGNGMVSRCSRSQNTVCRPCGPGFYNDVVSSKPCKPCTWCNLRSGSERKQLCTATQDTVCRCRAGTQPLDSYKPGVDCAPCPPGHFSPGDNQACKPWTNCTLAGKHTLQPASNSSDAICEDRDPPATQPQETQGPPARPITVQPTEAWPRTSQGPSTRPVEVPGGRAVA


What was measured:
[1] = biological target: T1, CD134 expressed on the cell surface of …; assay: cell-based or functional assay
[2] = biological target: T1, CD134 expressed on the cell surface of …; assay: HT1080_OX40 cells, imaging
[3] = biological target: T2, CD134 protein (His-tagged, Sino …); assay: ELISA, coated His-tagged CD134
Further: test concentration or dose not given here.

| Binder | Functional assay Cross-linked by F(ab′)2 fragment IL-8 [1] [abs. corr.] | Functional assay IL-8 [1] [abs. corr.] | Cellular binding assay [RFU] [2] [RFU] | ELISA [abs. corr.] [3] [abs. corr.] |
| --- | --- | --- | --- | --- |
| P018.S.12.A.H01 (antibody, V domains shown, V regions on human Ig constant parts; also called AB134_88) VH: QSVEESGGRLVTPGTPLTLTCTVSGFSLSSYAMSWVRQAPGKGLEWIGDINSYATTYYASWAKGRFTISKTSTTVDLKLTSPTTEDTATYFCAREAGYADLWGQGTLVTVSS VL: AYDMTQTPASVEVAVGGTVTIKCQASQSISRYLSWYQQEPGQRPKLLIYEASTLASGVSSRFKGSGSGTQFTLTISGVESADAATYYCQQDYDSTDVGNTFGGGTEVVVK | 1.83 | 0.43 | 523 | 1.89 |
| P018.S.12.A.G01 (antibody, V domains shown, V regions on human Ig constant parts; also called AB134_83) VH: QSVEESGGRLVTPGTPLTLTCTVSGFSLSSSTMGWFRQAPGKGLEWIGVIYTDGDTYYARWAKGRFTISKTSTTINLSITSPTSEDTATYFCARRANGYDDFDPWGPGTLVTVSS VL: AYDMTQTPASVEVAVGGTVTIKCQASESISSYLNWYQQKPGQPPKLLIYYESYLASGVPSRFKGSGSGTEYTLTISGVESADAATYYCQQGFSYINVDNTFGGGTEVVVK | 1.86 | 1.33 | 526 | 1.56 |
| P018.S.12.A.G02 (antibody, V domains shown, V regions on human Ig constant parts; also called AB134_84) VH: QSLEESGGRLVTPGTPLTLTCTASGFSLNMFYMIWVRQAPGKGLEWIGMIDSMGSAWYASWAKGRFTISKTSTAVALKITSPTTEDTATYFCARAINGDGAGDLWGQGTLVTVSS VL: DVVMTQTPASVSAAVGGTVTINCRASEKIDSFLAWYQQKPGQPPKLLIYGASELAPGVPSRFSGSGSGTDYTLTISALESADAATYYCQSTADGSDYVGTFGGGTEVVVK | 1.81 | 0.212 | 530 | 2.33 |
| P018.S.12.A.E06 (antibody, V domains shown, V regions on human Ig constant parts; also called AB134_77) VH: QSVEESGGRLVTPGTPLTLTCTVSGFSLSNYHMCWVRRAPGKGLEWIGSITTADETTHYANWAKGRFTISETSTTVDLRITSPTTEDTAIYFCGRTIRYDDYAVDLWGPGTLVTVSS VL: DLVMTQTPASMSEPVGGTVTIKCQASESVGGYLAWYQQKAGQRPKLLIYAAGNLASGVPSRFKGSGSGTEYTLTISDLESADAATYYCQCTYFDSSYVGFGGGTEVVVR | 1.87 | 0.054 | 493 | 2.3 |
| P018.S.11.A.E03 (antibody, V domains shown, V regions on human Ig constant parts; also called AB134_34) VH: QSVEESGGRLVTPGTPLTLTCTVSGFSLSSYAVSWVRQAPWKGLEWIGIISSGGNTYYASWATGRFTISKTSTTVDLKITSPTTEDTATYFCARGIHSYDDYLGYKLWGPGTLVTVSS VL: AIEMTQSPPSLSASVGETVRIRCLASEFLFNAVSWYQQKPEKPPTLLISGASNLESGVPPRFSGSGSGTDYTLTIGGVQAEDVAAYYCLGGYKRADLTFGPGTKVEIK | 1.79 | 0.481 | 318 | 0.276 |
| P018.S.11.A.E04 (antibody, V domains shown, V regions on human Ig constant parts; also called AB134_35) VH: QSVEESGGRLVTPGTPLTLTCTVSGFSLNDYAMSWVRQAPGKGLEWIGSIYTSGTPYYATWAKGRFTISKTSTTVDLKITSPTTEDTATYFCARQSGIDNYWLFTLWGQGTLVCVSS VL: AYDMTQTPASVEVGVGGTVTIKCQASESIASGLAWYQQKPGQRPKLLIYSASSLASGVSSRFKGSGSGTQFTLTISDLESADAANYYCQQGYTSTNLHNVFGGGTEVVVK | 1.83 | -0.194 | 416 | 1.31 |
| P018.S.08.A.B03 (antibody, V domains shown, V regions on human Ig constant parts; also called AB134_19) VH: QSVEESGGRLVTPGTPLTLTCTVSGFSLSRYAITWVRQAPGKGLEWIGIISSSGTTYYASWAKGRFTISKTSTTVDLKITSPTTEDTAIYFCARAIAGDAGYVYAIDWLDLWGQGTLVTVSS VL: DPVLTQTPSSASEPVGGTVTIKCQASEYISNYLSWYQQKPGQPPKLLIFGASTLESGVPSRFSGSGSGTEFTLTISGVQSADAATYYCQGGYFSSSTTYVAFGGGTEVVVR | 1.94 | 0.709 | 477 | 2.66 |
| P018.S.11.A.F03 (antibody, V domains shown, V regions on human Ig constant parts; also called AB134_39) VH: QEQLVESGGGLVQPEGSLTLTCKASGFDFNNNAMCWVRQAPGKGLEWIACIYDGSSGSTYYASWAKGRFTISKTSSSTVTLQMTSLTAADTATYFCARAYAAYTVYDYAFNLWGPGTLVTVSS VL: DVVMTQTPASVSEPVGGTVTIKCQASQSIGSDLAWYQQKPGQPPKLLIYYTTNLETGVSSRFKGSGSGTQFTLTISDLESADAATYYCQYADRSSYSFGGGTEVVVK | 1.94 | 0.38 | 522 | 1.85 |
